# Data reported in publication doi:10.1101/2025.05.15.654217.
# Target: 3×FLAG–SpaO^L-V5pBpa (Salmonella enterica serovar Typhimurium SL1344) (UniProt P40699)
# Test: cross-linking
# Chain of UniProt P40699 (P40699 whole entry, looked up): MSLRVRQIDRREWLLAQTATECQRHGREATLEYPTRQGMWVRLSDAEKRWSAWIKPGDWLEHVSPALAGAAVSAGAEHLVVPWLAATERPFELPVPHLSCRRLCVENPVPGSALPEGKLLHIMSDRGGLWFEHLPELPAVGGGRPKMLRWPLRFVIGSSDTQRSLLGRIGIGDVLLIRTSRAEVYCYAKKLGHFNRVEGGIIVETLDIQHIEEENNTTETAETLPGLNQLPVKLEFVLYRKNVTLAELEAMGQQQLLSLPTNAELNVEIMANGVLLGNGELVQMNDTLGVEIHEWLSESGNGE
substance,measurement,value
M45-SpaO^short F34pBpa (natural protein),stoichiometry N (SpaO^short per SpaO^L),2
